Numbering of substitutions follows the chain as printed. Names may count otherwise.
Molecular target: T1, human claudin 6 (CLDN6) (human, UniProt P56747 1-220)
T1 construct: also called human CLDN6; hCLDN6
T1 sequence: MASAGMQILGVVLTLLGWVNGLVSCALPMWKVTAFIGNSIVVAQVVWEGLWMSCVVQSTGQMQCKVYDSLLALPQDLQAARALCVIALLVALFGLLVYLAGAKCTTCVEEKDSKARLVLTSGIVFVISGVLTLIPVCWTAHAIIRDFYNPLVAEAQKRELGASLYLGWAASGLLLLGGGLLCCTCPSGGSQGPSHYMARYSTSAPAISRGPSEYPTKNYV
Assay: flow cytometry, HEK293T-human CLDN6 cells; ratio to chBG87P
Protocol: For affinity determination, CLDN6 over-expressing HEK293T cells and cancer cell line PA-1 which express high levels of human CLDN6 were used to evaluate the binding activity of BG87P related engineering variants. Live cells were seeded in 96-well plate, and were incubated with a series of dilutions of chBG87P and engineered variants thereof. Goat anti-human IgG was used as second antibody to detect antibody binding to the cell surface. EC50 values for dose-dependent binding to CLDN6 expressing cell lines were determined by fitting the dose-response data to the four-parameter logistic model with GraphPad Prism. Cell binding activity of 1st round of BG87P humanization variants against HEK293T/human CLDN6 were compared to chBG87P and shown in FIG. 1A.

B1: BG87P-Bz0 (antibody, V domains shown)
VH: QIQLVQSGAEVKKPGASVKVSCKASGYSFTDYHINWVRQAPGQRLEWMGWIYPGSGYTKYNEKFKVRVTLTVDTSASTAYMELSSLRSEDTAVYFCARSGIYHYVSSYYFDHWGKGTTVTVSS
VL: DIQMTQSPSTLSASVGDRVTITCKASQDVGTAVAWYQQKPGKSPKLLIYWASTRHTGVPSRFSGSGSGTEFTLTISSVQPDDFATYFCQQYSSYTFGGGTKVEIK
notes: Humanized, all back mutations; also called BG87P-B20; BG87-Bz0
B1 was tested. Which “Emax ratio to BG87P” value did it give?
Its value is 0.56.

B2: BG87P-Bz3 (antibody, V domains shown)
VH: B1 VH with L70I
VL: B1 VL
notes: also called BG87P-B23
B2 was tested. Which “Emax ratio to BG87P” value did it give?
The value was 0.56.

B3: BG87P-Bz1 (antibody, V domains shown)
VH: B1 VH with I2V
VL: B1 VL
Which “Emax ratio to BG87P” value does the source give for B3 here?
Its value is 0.52.

B4: BG87P-Bz7 (antibody, V domains shown)
VH: B1 VH
VL: B1 VL with V78L
notes: also called BG87P-B27
B4 was tested. Which “Emax ratio to BG87P” value did it give?
Its value is 0.81.

B5: BG87P-m5 (antibody, V domains shown)
VH: B1 VH with D111E
VL: B1 VL
notes: PTM removal variant of BG87P-Bz0
For B5, which “Emax ratio to BG87P” value is on record?
The value was 0.66.

B6: BG87P-Bz4 (antibody, V domains shown)
VH: B1 VH with V72R
VL: B1 VL
notes: also called BG87P-B24
With B6 as the binder, how does the “Emax ratio to BG87P” value read?
Its value is 0.57.

B7: BG87P-Bz2 (antibody, V domains shown)
VH: B1 VH with S28T
VL: B1 VL
B7 was tested. Which “Emax ratio to BG87P” value did it give?
The value was 0.44.

B8: BG87P-Bz8 (antibody, V domains shown)
VH: B1 VH
VL: B1 VL with F87Y
For B8, which “Emax ratio to BG87P” value is on record?
The value was 0.68.

B9: BG87P-Bz5 (antibody, V domains shown)
VH: B1 VH with F95Y
VL: B1 VL
notes: also called BG87P-B25
Which “Emax ratio to BG87P” value does the source give for B9 here?
Its value is 0.73.

B10: BG87P-m8 (antibody, V domains shown)
VH: B1 VH with H33A
VL: B1 VL
notes: Variant of BG87P-Bz0 with H33A
With B10 as the binder, how does the “Emax ratio to BG87P” value read?
Its value is 0.28.

B11: BG87P-Bz6 (antibody, V domains shown)
VH: B1 VH
VL: B1 VL with S43A
notes: also called BG87P-B26
Which “Emax ratio to BG87P” value does the source give for B11 here?
Its value is 0.75.

B12: BG87P-m6 (antibody, V domains shown)
VH: B1 VH with D111Q
VL: B1 VL
notes: as for B5
How did the “Emax ratio to BG87P” value turn out when B12 was run?
The value was 0.62.

B13: BG87P-m7 (antibody, V domains shown)
VH: B1 VH with V66G
VL: B1 VL
notes: as for B5
Which “Emax ratio to BG87P” value does the source give for B13 here?
The value was 0.7.

B14: BG87P-m1 (antibody, V domains shown)
VH: QIQLQQSGPELVKPGASVKISCKASGYSFTDYHINWVKQRPGQGLEWIGWIYPGSGYTKYNEKFKVKATLTVDTSSSTAYMHLTSLTSEDSAVYFCARSGIYHYVSSYYFEHWGQGTTLTVSS
VL: DIVMTQSHTFMSTSVGDRVSITCKASQDVGTAVAWYQQKPGQSPKLLIYWASTRHTGVPDRFTGSGSGTDFTLTISNVQSEDLADYFCQQYSSYTFGGGTKLEIK
notes: PTM removal variant of chBG87P
B14 was tested. Which “Emax ratio to BG87P” value did it give?
The value was 1.08.

B15: BG87P-m3 (antibody, V domains shown)
VH: B14 VH with V66G, E111D
VL: B14 VL
notes: PTM removal variant of chBG87P with VH V65G
How did the “Emax ratio to BG87P” value turn out when B15 was run?
Its value is 1.18.

B16: BG87P-m2 (antibody, V domains shown)
VH: B14 VH with E111Q
VL: B14 VL
notes: as for B14
Which “Emax ratio to BG87P” value does the source give for B16 here?
Its value is 1.05.

— patent US20240301061A1 (BEIGENE SWITZERLAND, published 2024)
